Measured values reported in patent US7736875B2, “Dipeptidyl peptidase I crystal structure and its uses” (Prozymex A/S, priority 2000, dated 2010).

Columns and labels:
[1] = DPPI transferase assay; format: biochemical, rat; details: FIG. 8
Text: The rate of transfer of dipeptides from a donor peptide to the nucleophilic amino terminus of an acceptor peptide, the ratio of dipeptide transfer to hydrolysis and the stability of elongated peptide product to hydrolytic turnover are estimated in a transferase assay.
In these reactions, X and Y are any amino acid residue with the exception of prolyl. X is preferably Phe and Y is preferably Arg or Lys and pNA is a para-nitroanilide group. H and COOH indicate unblocked peptide amino and carboxy termini, respectively. In the transferase reaction, DPPI catalyses the transpeptidation of dipeptide H-Pro-X from the peptide amide to the free amino group of residue Y. The dipeptide can not be transferred to a second H-Pro-X-NH2 molecule because of the N-terminal Pro residue. The progress of the transpeptidation reaction is monitored in the trypsin cleavage reaction, in which produced H-Pro-X-Y-pNA tripeptide is hydrolysed following the addition of trypsin endoprotease to an aliquot of reaction mixture. Trypsin hydrolyses H-Pro-X-Arg/Lys-pNA much more rapidly than H-Arg/Lys-pNA (low aminopeptidase activity) making it possible to determine the amount of tripeptide formed. The transferase reaction is essentially stopped upon addition of trypsin because the reactants are diluted 10-fold (resulting in an approximately 100-fold lower rate) and because DPPI is unstable at pH 8.3.
The concentration of tripeptide obtained also depends on the rates of hydrolysis of the initial substrate (Hydrolysis reaction 1) and of the tripeptide (Hydrolysis reaction 2):
The hydrolysed peptides […] and […] are not DPPI substrates and can no longer be used in peptide synthesis. Accordingly, the peptidase activity of DPPI degrades both the trypsin substrate (before trypsin is added to the reaction mixture) and one of its precursors.
20 μl of DPPI (1-50 U/ml) in 20 mM Tris-HCl or sodium phosphate-NaOH buffer pH 7.5 is mixed with 20 μl 20 mM dithiothreitol (DTT) and allowed to incubate for 30 min at 5-37° C., preferably 12° C. Meanwhile, 10 μl 400 mM H-Pro-X-NH2 and 10 μl 500 mM H-Y-pNA (both in 100% dimethyl formamide) and 140 μl […] Tris-HCl or sodium phosphate-NaOH buffer, pH 7.5 are mixed and incubated at the same temperature. The transferase and hydrolysis reactions are initiated by the addition of reduced and activated DPPI to the peptide mixture (same temperature). All reaction mixtures should include a minimum of 10 mM chloride.
The progress of the reaction is followed by mixing 10 μl aliquots with 1 μM trypsin in 0.1 M Tris-HCl buffer pH 8.3 and at 5-37° C., preferably 20-37° C. A yellow colour quickly appears. After 10 min, 1000 μl of water are added and the absorbance at 405 nm is measured against an appropriate blank.

[2] = test system: one or more cysteine peptidases present in the eluates of the Butyl SEPHAROSE FF column; assay: Proteolytic processing of immature DPPI peptides in Butyl Sepharose FF eluate (SDS-PAGE); format: biochemical; details: eluate incubated at pH 4.5, 4° C.
Procedure: DPPI eluted from the hydrofobic interaction column was in general only partially processed to the mature, active form. To complete the processing, the eluate was incubated at pH 4.5 and 4° C. for 18-40 hours to convert the immature peptides to the peptides of mature rrDPPI or rhDPPI. […] Furthermore, the rate of processing was dependent on the pH of the buffer during incubation. No conversion of the immature peptides could be observed at pH 7.0 as determined by SDS-PAGE analysis but processing was observed when incubation was performed at pH 6.5 or below. The processing proceeded at highest rate at about pH 4.5. The fully processed rhDPPI and rrDPPI were finally purified and concentrated on Q-SEPHAROSE™ FF as described above. Recombinant hDPPI was quantified using an extinction coefficient at 280 nm of 2.0.

Question: With “D274Q: rat DPPI active site mutant Asp274 to Gln274” as the molecule, how does the “influence of mutation on rat DPPI transferase activity” value ([1]; versus wild type rat DPPI) read?
Answer: no favourable influence

Question: With `CC(C)C[C@H](NC(=O)[C@H]1O[C@@H]1C(=O)O)C(=O)NCCCCN=C(N)N` [E-64, reference compound] as the molecule, how does the “proteolytic processing of the immature peptides to mature rrDPPI or rhDPPI” value ([2]; addition of 1 μM E-64) read?
Answer: completely blocked

Question: What does the source list for “N226S229:Q226N229: rat DPPI active site double mutant Asn226:Ser229 to Gln226:Asn229”?
Answer: stability of the produced tripeptide product in presence of the variant [1]: much more stable; transferase activity versus hydrolytic activity (maximum level of tripeptide) [1]: favoured over the hydrolytic activity; rate of generation of the tripeptide substrate ([1]; compared with wild type and D274Q): nearly as fast as the other two variants

B1: chicken cystatin: non-covalent protein inhibitor of cysteine peptidases of the cystatin family (protein, UniProt P01038 24-139, looked up)
Cystatin: SEDRSRLLGAPVPVDENDEGLQRALQFAMAEYNRASNDKYSSRVVRVISAKRQLVSGIKYILQVEIGRTTCPKSSGDLQSCEFHDEPEMAKYTTCTFVVYSIPWLNQIKLLESKCQ
Question: With B1 as the molecule, how does the “proteolytic processing of the immature peptides to mature rrDPPI or rhDPPI” value ([2]; addition of 0.1 μM chicken cystatin) read?
Answer: completely blocked
